Ki data for six molecules are collected here from patent US20210139548A1 (published 2021).

B1: Compound 155 (peptide)
peptide: Isovaleryl-APEK([AEEA-AEEA-γGlu-C18 diacid])PEEDASPEETQRYYVSLRHYYNWLTRQRY-NH2
SMILES: CC(C)CC(=O)N[C@@H](C)C(=O)N1CCC[C@H]1C(=O)N[C@@H](CCC(=O)O)C(=O)N[C@@H](CCCCNC(=O)COCCOCCNC(=O)COCCOCCNC(=O)CC[C@H](NC(=O)CCCCCCCCCCCCCCCCC(=O)O)C(=O)O)C(=O)N1CCC[C@H]1C(=O)N[C@@H](CCC(=O)O)C(=O)N[C@@H](CCC(=O)O)C(=O)N[C@@H](CC(=O)O)C(=O)N[C@@H](C)C(=O)N[C@@H](CO)C(=O)N1CCC[C@H]1C(=O)N[C@@H](CCC(=O)O)C(=O)N[C@@H](CCC(=O)O)C(=O)N[C@H](C(=O)N[C@@H](CCC(N)=O)C(=O)N[C@@H](CCCNC(=N)N)C(=O)N[C@@H](Cc1ccc(O)cc1)C(=O)N[C@@H](Cc1ccc(O)cc1)C(=O)N[C@H](C(=O)N[C@@H](CO)C(=O)N[C@@H](CC(C)C)C(=O)N[C@@H](CCCNC(=N)N)C(=O)N[C@@H](Cc1c[nH]cn1)C(=O)N[C@@H](Cc1ccc(O)cc1)C(=O)N[C@@H](Cc1ccc(O)cc1)C(=O)N[C@@H](CC(N)=O)C(=O)N[C@@H](Cc1c[nH]c2ccccc12)C(=O)N[C@@H](CC(C)C)C(=O)N[C@H](C(=O)N[C@@H](CCCNC(=N)N)C(=O)N[C@@H](CCC(N)=O)C(=O)N[C@@H](CCCNC(=N)N)C(=O)N[C@@H](Cc1ccc(O)cc1)C(N)=O)[C@@H](C)O)C(C)C)[C@@H](C)O
B2: Compound 166 (peptide)
peptide: Isovaleryl-APEK([AEEA-AEEA-γGlu-C18 diacid])PPADASPEELQRYYVELRHYYNWLTRQRY-NH2
SMILES: CC(C)CC(=O)N[C@@H](C)C(=O)N1CCC[C@H]1C(=O)N[C@@H](CCC(=O)O)C(=O)N[C@@H](CCCCNC(=O)COCCOCCNC(=O)COCCOCCNC(=O)CC[C@H](NC(=O)CCCCCCCCCCCCCCCCC(=O)O)C(=O)O)C(=O)N1CCC[C@H]1C(=O)N1CCC[C@H]1C(=O)N[C@@H](C)C(=O)N[C@@H](CC(=O)O)C(=O)N[C@@H](C)C(=O)N[C@@H](CO)C(=O)N1CCC[C@H]1C(=O)N[C@@H](CCC(=O)O)C(=O)N[C@@H](CCC(=O)O)C(=O)N[C@@H](CC(C)C)C(=O)N[C@@H](CCC(N)=O)C(=O)N[C@@H](CCCNC(=N)N)C(=O)N[C@@H](Cc1ccc(O)cc1)C(=O)N[C@@H](Cc1ccc(O)cc1)C(=O)N[C@H](C(=O)N[C@@H](CCC(=O)O)C(=O)N[C@@H](CC(C)C)C(=O)N[C@@H](CCCNC(=N)N)C(=O)N[C@@H](Cc1c[nH]cn1)C(=O)N[C@@H](Cc1ccc(O)cc1)C(=O)N[C@@H](Cc1ccc(O)cc1)C(=O)N[C@@H](CC(N)=O)C(=O)N[C@@H](Cc1c[nH]c2ccccc12)C(=O)N[C@@H](CC(C)C)C(=O)N[C@H](C(=O)N[C@@H](CCCNC(=N)N)C(=O)N[C@@H](CCC(N)=O)C(=O)N[C@@H](CCCNC(=N)N)C(=O)N[C@@H](Cc1ccc(O)cc1)C(N)=O)[C@@H](C)O)C(C)C
B3: Compound 158 (peptide)
peptide: Isovaleryl-APEK([AEEA-AEEA-γGlu-C18 diacid])PEEDASPEELQRYYVSLRHYWNYLTRQRY-NH2
SMILES: CC(C)CC(=O)N[C@@H](C)C(=O)N1CCC[C@H]1C(=O)N[C@@H](CCC(=O)O)C(=O)N[C@@H](CCCCNC(=O)COCCOCCNC(=O)COCCOCCNC(=O)CC[C@H](NC(=O)CCCCCCCCCCCCCCCCC(=O)O)C(=O)O)C(=O)N1CCC[C@H]1C(=O)N[C@@H](CCC(=O)O)C(=O)N[C@@H](CCC(=O)O)C(=O)N[C@@H](CC(=O)O)C(=O)N[C@@H](C)C(=O)N[C@@H](CO)C(=O)N1CCC[C@H]1C(=O)N[C@@H](CCC(=O)O)C(=O)N[C@@H](CCC(=O)O)C(=O)N[C@@H](CC(C)C)C(=O)N[C@@H](CCC(N)=O)C(=O)N[C@@H](CCCNC(=N)N)C(=O)N[C@@H](Cc1ccc(O)cc1)C(=O)N[C@@H](Cc1ccc(O)cc1)C(=O)N[C@H](C(=O)N[C@@H](CO)C(=O)N[C@@H](CC(C)C)C(=O)N[C@@H](CCCNC(=N)N)C(=O)N[C@@H](Cc1c[nH]cn1)C(=O)N[C@@H](Cc1ccc(O)cc1)C(=O)N[C@@H](Cc1c[nH]c2ccccc12)C(=O)N[C@@H](CC(N)=O)C(=O)N[C@@H](Cc1ccc(O)cc1)C(=O)N[C@@H](CC(C)C)C(=O)N[C@H](C(=O)N[C@@H](CCCNC(=N)N)C(=O)N[C@@H](CCC(N)=O)C(=O)N[C@@H](CCCNC(=N)N)C(=O)N[C@@H](Cc1ccc(O)cc1)C(N)=O)[C@@H](C)O)C(C)C
B4: Compound 160 (peptide)
peptide: Isovaleryl-APEK([AEEA-AEEA-γGlu-C18 diacid])PEADAEPEELQRYYTSLRHYYNWLTRQRY-NH2
SMILES: CC(C)CC(=O)N[C@@H](C)C(=O)N1CCC[C@H]1C(=O)N[C@@H](CCC(=O)O)C(=O)N[C@@H](CCCCNC(=O)COCCOCCNC(=O)COCCOCCNC(=O)CC[C@H](NC(=O)CCCCCCCCCCCCCCCCC(=O)O)C(=O)O)C(=O)N1CCC[C@H]1C(=O)N[C@@H](CCC(=O)O)C(=O)N[C@@H](C)C(=O)N[C@@H](CC(=O)O)C(=O)N[C@@H](C)C(=O)N[C@@H](CCC(=O)O)C(=O)N1CCC[C@H]1C(=O)N[C@@H](CCC(=O)O)C(=O)N[C@@H](CCC(=O)O)C(=O)N[C@@H](CC(C)C)C(=O)N[C@@H](CCC(N)=O)C(=O)N[C@@H](CCCNC(=N)N)C(=O)N[C@@H](Cc1ccc(O)cc1)C(=O)N[C@@H](Cc1ccc(O)cc1)C(=O)N[C@H](C(=O)N[C@@H](CO)C(=O)N[C@@H](CC(C)C)C(=O)N[C@@H](CCCNC(=N)N)C(=O)N[C@@H](Cc1c[nH]cn1)C(=O)N[C@@H](Cc1ccc(O)cc1)C(=O)N[C@@H](Cc1ccc(O)cc1)C(=O)N[C@@H](CC(N)=O)C(=O)N[C@@H](Cc1c[nH]c2ccccc12)C(=O)N[C@@H](CC(C)C)C(=O)N[C@H](C(=O)N[C@@H](CCCNC(=N)N)C(=O)N[C@@H](CCC(N)=O)C(=O)N[C@@H](CCCNC(=N)N)C(=O)N[C@@H](Cc1ccc(O)cc1)C(N)=O)[C@@H](C)O)[C@@H](C)O
B5: Compound 165 (peptide)
peptide: Isovaleryl-APEK([AEEA-AEEA-γGlu-C18 diacid])PEEDASPEELQRYQVSLRHYYNWLTRQRY-NH2
SMILES: CC(C)CC(=O)N[C@@H](C)C(=O)N1CCC[C@H]1C(=O)N[C@@H](CCC(=O)O)C(=O)N[C@@H](CCCCNC(=O)COCCOCCNC(=O)COCCOCCNC(=O)CC[C@H](NC(=O)CCCCCCCCCCCCCCCCC(=O)O)C(=O)O)C(=O)N1CCC[C@H]1C(=O)N[C@@H](CCC(=O)O)C(=O)N[C@@H](CCC(=O)O)C(=O)N[C@@H](CC(=O)O)C(=O)N[C@@H](C)C(=O)N[C@@H](CO)C(=O)N1CCC[C@H]1C(=O)N[C@@H](CCC(=O)O)C(=O)N[C@@H](CCC(=O)O)C(=O)N[C@@H](CC(C)C)C(=O)N[C@@H](CCC(N)=O)C(=O)N[C@@H](CCCNC(=N)N)C(=O)N[C@@H](Cc1ccc(O)cc1)C(=O)N[C@@H](CCC(N)=O)C(=O)N[C@H](C(=O)N[C@@H](CO)C(=O)N[C@@H](CC(C)C)C(=O)N[C@@H](CCCNC(=N)N)C(=O)N[C@@H](Cc1c[nH]cn1)C(=O)N[C@@H](Cc1ccc(O)cc1)C(=O)N[C@@H](Cc1ccc(O)cc1)C(=O)N[C@@H](CC(N)=O)C(=O)N[C@@H](Cc1c[nH]c2ccccc12)C(=O)N[C@@H](CC(C)C)C(=O)N[C@H](C(=O)N[C@@H](CCCNC(=N)N)C(=O)N[C@@H](CCC(N)=O)C(=O)N[C@@H](CCCNC(=N)N)C(=O)N[C@@H](Cc1ccc(O)cc1)C(N)=O)[C@@H](C)O)C(C)C
B6: Compound 163 (peptide)
peptide: Isovaleryl-APEK([AEEA-AEEA-γGlu-C18 diacid])PEEAASPEELQRYYVALRHYYNWLTRQRY-NH2
SMILES: CC(C)CC(=O)N[C@@H](C)C(=O)N1CCC[C@H]1C(=O)N[C@@H](CCC(=O)O)C(=O)N[C@@H](CCCCNC(=O)COCCOCCNC(=O)COCCOCCNC(=O)CC[C@H](NC(=O)CCCCCCCCCCCCCCCCC(=O)O)C(=O)O)C(=O)N1CCC[C@H]1C(=O)N[C@@H](CCC(=O)O)C(=O)N[C@@H](CCC(=O)O)C(=O)N[C@@H](C)C(=O)N[C@@H](C)C(=O)N[C@@H](CO)C(=O)N1CCC[C@H]1C(=O)N[C@@H](CCC(=O)O)C(=O)N[C@@H](CCC(=O)O)C(=O)N[C@@H](CC(C)C)C(=O)N[C@@H](CCC(N)=O)C(=O)N[C@@H](CCCNC(=N)N)C(=O)N[C@@H](Cc1ccc(O)cc1)C(=O)N[C@@H](Cc1ccc(O)cc1)C(=O)N[C@H](C(=O)N[C@@H](C)C(=O)N[C@@H](CC(C)C)C(=O)N[C@@H](CCCNC(=N)N)C(=O)N[C@@H](Cc1c[nH]cn1)C(=O)N[C@@H](Cc1ccc(O)cc1)C(=O)N[C@@H](Cc1ccc(O)cc1)C(=O)N[C@@H](CC(N)=O)C(=O)N[C@@H](Cc1c[nH]c2ccccc12)C(=O)N[C@@H](CC(C)C)C(=O)N[C@H](C(=O)N[C@@H](CCCNC(=N)N)C(=O)N[C@@H](CCC(N)=O)C(=O)N[C@@H](CCCNC(=N)N)C(=O)N[C@@H](Cc1ccc(O)cc1)C(N)=O)[C@@H](C)O)C(C)C

*1 amine or outer side, *2 acyl side, *3 side chain or, on linkers, in order; H or OH if unused. Side-chain parts run from the residue outwards. The star is where a group is joined. C18 diacid = O=C(O)CCCCCCCCCCCCCCCCC(=O)*; γGlu = O=C(O)[C@H](CCC(=O)[*:2])N[*:1]; Isovaleryl = CC(C)CC(=O)*; AEEA = NCCOCCOCC(=O)O

This test has as its target T1, human neuropeptide Y2 receptor (human, UniProt P49146 1-381).
T1 construct: whole, on cells; also called hNPY2 receptor; hNPY2-R
T1 sequence (looked up): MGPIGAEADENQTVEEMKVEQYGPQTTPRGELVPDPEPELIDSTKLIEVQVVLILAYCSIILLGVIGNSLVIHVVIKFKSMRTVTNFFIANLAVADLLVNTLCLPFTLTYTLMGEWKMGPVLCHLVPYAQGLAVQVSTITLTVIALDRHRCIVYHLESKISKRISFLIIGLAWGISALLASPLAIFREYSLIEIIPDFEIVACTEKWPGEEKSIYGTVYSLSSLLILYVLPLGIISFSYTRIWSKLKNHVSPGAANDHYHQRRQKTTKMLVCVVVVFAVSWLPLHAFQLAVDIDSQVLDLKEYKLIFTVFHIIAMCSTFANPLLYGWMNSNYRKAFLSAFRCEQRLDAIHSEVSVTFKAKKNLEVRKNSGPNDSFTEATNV
Put plainly: radioligand competition (125I-PYY(1-36)), hNPY2R membranes. The gist of the method:
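Commercial human Y2 receptor membranes (0.5 μg protein/well) were incubated with peptide for 2 h at room temperature in 50 mM HEPES, 5 mM MgCl₂, 1 mM CaCl₂, pH 7.4, with 0.2% ovalbumin. Bound radioligand was separated on PEI-soaked GF/C filters and counted by scintillation, and IC₅₀ came from nonlinear sigmoidal regression.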
Consider B1, for which the Ki (usually the equilibrium dissociation constant of an inhibitor or competing ligand from its target) stood at 2.05 nM.
The value for B2 was 0.66 nM; that for B3 was 4.43 nM; that for B4 was 2 nM.
The value for B5 was 2.49 nM.
For B6, the Ki came out at 0.96 nM.
